Consider one substance from paper PMC4240654.

The target in experiment [1] is rFVIIIFc (recombinant factor VIII Fc fusion protein) (human) (UniProt P00451).
The target of experiment [2] is SC rFVIIIFc (single chain recombinant factor VIII Fc fusion protein) (human).
The target in experiment [3] is BDD rFVIII (recombinant B-domain-deleted factor VIII, ReFacto / Xyntha) (UniProt P00451).
Experiment [4] addresses SC rFVIIIFc R1645A/R1648A (human).

As for FIXa (activated factor IX) (enzyme), the Apparent K D (FIXa-FVIIIa affinity), FXa generation assay on synthetic phospholipids, thrombin-activated rFVIIIFc in experiment [1] stood at 5.5 nM. Further, the Apparent K D (FIXa-FVIIIa affinity), FXa generation assay on synthetic phospholipids, thrombin-activated SC rFVIIIFc in experiment [2] was found to be 4.1 nM. Besides, the Apparent K D (FIXa-FVIIIa affinity), FXa generation assay on synthetic phospholipids, thrombin-activated BDD rFVIII (ReFacto) in experiment [3] came to 4.5 nM. In experiment [4], the Apparent K D (FIXa-FVIIIa affinity), FXa generation assay on synthetic phospholipids, thrombin-activated SC rFVIIIFc R1645A/R1648A was determined as 3.8 nM.
